The record followed here is article PMC12901311, “HEXIM1 inter-monomer autoinhibition governs 7SK RNA binding specificity and P-TEFb inactivation” (Nature Communications, 2024).

What is called Kd is the concentration at which binding is half-saturated.

One data set addresses Hexim1-deltaPYNT (human, UniProt O94992 1-201+206-359, internal_change). Put plainly: ITC; ITC: 20 mM HEPES pH 7.5, 150 mM KCl, 1 mM TCEP, 295 K; NMR: 50 mM Na phosphate pH 6.2, 150 mM KCl, 0.02% NaN3, 5% D2O, 298 K; EMSA: binding buffer (20 mM HEPES). The note with it: protein: recombinant; chain copies: 2; hairpin.
In the next data set the target is Hexim1 NBLA-S158EE (human, UniProt O94992 1-157+=EE+159-253, internal_change). Put plainly: ITC; N=0.74; ITC: 20 mM HEPES pH 7.5, 150 mM KCl, 1 mM TCEP, 295 K; NMR: 50 mM Na phosphate pH 6.2, 150 mM KCl, 0.02% NaN3, 5% D2O, 298 K; EMSA: binding buffer (20 mM HEPES). Conditions: protein: recombinant; hairpin with U40U41 and U63 bulges. (In ITC the heat of successive injections is recorded.)

The target in data set [1] is Hexim1 BR-L-AR(S183C-MTSL) (human, UniProt O94992 142-253, S183C). Briefly: NMR (PRE); 1:1.2 protein:RNA; intensity recovery outside BR; ITC: 20 mM HEPES pH 7.5, 150 mM KCl, 1 mM TCEP, 295 K; NMR: 50 mM Na phosphate pH 6.2, 150 mM KCl, 0.02% NaN3, 5% D2O, 298 K; EMSA: binding buffer (20 mM HEPES). Conditions: protein: recombinant; tags: MBP-His6 removed by TEV; non-native N-terminal G; MTSL spin label at C183; hairpin with U40U41 and U63 bulges. For orientation: In EMSA bound probe runs differently from free probe, usually more slowly.
Sequence of Hexim1 BR-L-AR(S183C-MTSL) (O94992 142-253 S183C): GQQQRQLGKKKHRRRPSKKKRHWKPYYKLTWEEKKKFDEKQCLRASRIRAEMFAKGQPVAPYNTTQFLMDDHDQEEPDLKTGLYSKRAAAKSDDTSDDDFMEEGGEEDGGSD

Sequence of Hexim1-deltaPYNT (O94992 other isoform, or with tags, fused parts or gaps | mutant): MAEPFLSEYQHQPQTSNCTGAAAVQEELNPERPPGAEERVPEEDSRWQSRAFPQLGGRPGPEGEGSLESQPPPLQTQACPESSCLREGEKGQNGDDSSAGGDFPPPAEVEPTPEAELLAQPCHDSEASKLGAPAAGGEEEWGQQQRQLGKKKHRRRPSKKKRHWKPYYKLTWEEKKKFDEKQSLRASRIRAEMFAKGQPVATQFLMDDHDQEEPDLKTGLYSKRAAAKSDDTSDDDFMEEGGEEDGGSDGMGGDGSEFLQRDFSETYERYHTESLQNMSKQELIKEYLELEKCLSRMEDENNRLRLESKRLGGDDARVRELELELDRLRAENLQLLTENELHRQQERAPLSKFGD
Sequence of Hexim1 NBLA-S158EE (O94992 other isoform, or with tags, fused parts or gaps): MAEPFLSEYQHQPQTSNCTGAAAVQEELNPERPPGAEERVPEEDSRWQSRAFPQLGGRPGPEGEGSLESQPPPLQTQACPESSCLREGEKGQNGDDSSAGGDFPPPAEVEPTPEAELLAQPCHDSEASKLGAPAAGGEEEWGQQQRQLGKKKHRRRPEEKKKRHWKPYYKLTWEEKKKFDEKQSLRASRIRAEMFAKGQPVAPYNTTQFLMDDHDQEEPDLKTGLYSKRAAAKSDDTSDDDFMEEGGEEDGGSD

B1: 7SK SL1-p (structured_RNA)
RNA: GGAUGUGAGGGCGAUCUGGCUUCGGCCUUCCUCCCUCACCGCUCCA
Turning to B1, the binding signal with Hexim1-deltaPYNT was ~5 fold tighter than wild-type Hexim1.

B2: 7SK SL1-dI (structured_RNA)
RNA: GGCCAUUGAUCGCCUUCGGGCUGAUCUGGCC
Take B2: the Kd with Hexim1 NBLA-S158EE was determined as 727 ± 63 nM. Further, the binding result in data set [1] was “binds”.
